Article PMC7262448

Legend:
mouse plasma proteins = assay: EScalate equilibrium shift assay; binding of peptide to the proteins of human or mouse plasma; percentage of peptide unbound, determined in duplicate
human plasma proteins = assay: as above
[1] = molecular target: human SNAP-GLP-1R (human) (UniProt P43220); assay: FRET or BRET
rat GLP-1R (rat) = rat GLP-1R (rat) (UniProt P32301)
mouse GLP-1R (mouse) = mouse GLP-1R (mouse) (UniProt O35659)
[2] = molecular target: human SNAP-GLP-1R (human) (UniProt P43220)

Sequence of rat GLP-1R (rat) (P32301 22-463): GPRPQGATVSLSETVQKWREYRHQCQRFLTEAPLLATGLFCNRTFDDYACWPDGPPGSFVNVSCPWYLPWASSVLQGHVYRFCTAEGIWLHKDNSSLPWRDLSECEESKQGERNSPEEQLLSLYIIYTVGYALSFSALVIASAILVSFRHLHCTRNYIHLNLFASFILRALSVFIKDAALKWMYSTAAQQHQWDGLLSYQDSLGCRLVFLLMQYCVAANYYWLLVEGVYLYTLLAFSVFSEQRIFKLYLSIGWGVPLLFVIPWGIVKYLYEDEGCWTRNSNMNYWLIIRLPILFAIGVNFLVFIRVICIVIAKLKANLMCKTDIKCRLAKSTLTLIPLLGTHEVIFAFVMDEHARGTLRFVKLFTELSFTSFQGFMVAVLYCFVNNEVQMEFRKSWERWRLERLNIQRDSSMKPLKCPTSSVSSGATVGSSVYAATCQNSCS
Sequence of mouse GLP-1R (mouse) (O35659 22-463): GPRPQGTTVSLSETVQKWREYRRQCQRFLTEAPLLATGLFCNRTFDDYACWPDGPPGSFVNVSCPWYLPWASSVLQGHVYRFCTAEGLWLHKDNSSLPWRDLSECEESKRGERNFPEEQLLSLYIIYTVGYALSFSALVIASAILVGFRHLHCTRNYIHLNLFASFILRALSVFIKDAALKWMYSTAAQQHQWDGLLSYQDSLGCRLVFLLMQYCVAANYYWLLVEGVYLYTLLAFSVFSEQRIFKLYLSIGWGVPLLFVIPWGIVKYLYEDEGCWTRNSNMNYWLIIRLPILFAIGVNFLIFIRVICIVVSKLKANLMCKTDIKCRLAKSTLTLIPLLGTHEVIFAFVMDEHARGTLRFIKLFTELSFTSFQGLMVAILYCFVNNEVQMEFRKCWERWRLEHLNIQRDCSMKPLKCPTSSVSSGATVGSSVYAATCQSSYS
Sequence of human SNAP-GLP-1R (human) (P43220 24-463): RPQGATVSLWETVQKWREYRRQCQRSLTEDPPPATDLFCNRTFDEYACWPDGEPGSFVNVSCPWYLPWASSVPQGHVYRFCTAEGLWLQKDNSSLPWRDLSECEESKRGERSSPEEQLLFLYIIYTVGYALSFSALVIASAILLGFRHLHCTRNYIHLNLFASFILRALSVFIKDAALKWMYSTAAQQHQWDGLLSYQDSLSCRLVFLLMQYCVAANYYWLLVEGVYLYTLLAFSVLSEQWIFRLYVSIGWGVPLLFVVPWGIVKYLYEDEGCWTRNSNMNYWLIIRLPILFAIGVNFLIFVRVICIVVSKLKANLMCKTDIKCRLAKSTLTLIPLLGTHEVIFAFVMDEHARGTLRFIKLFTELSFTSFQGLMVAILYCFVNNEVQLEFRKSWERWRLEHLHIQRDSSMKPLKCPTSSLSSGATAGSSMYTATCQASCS

Substance	unbound fraction (fu) (mouse plasma proteins) [%]	unbound fraction (fu) (human plasma proteins) [%]	pKd [1]	cAMP, INS-1 832/3 cells (with IBMX), Emax (rat GLP-1R (rat)) [% max]	cAMP, INS-1 832/3 cells (with IBMX), pEC50 (rat GLP-1R (rat))	cAMP, MIN6B1 cells (with IBMX), Emax (mouse GLP-1R (mouse)) [% max]	cAMP, MIN6B1 cells (with IBMX), pEC50 (mouse GLP-1R (mouse))	cAMP (1% FBS), HEK293-SNAP-GLP-1R cells, Emax [2] [% max]	cAMP (1% FBS), HEK293-SNAP-GLP-1R cells, pEC50 [2]
[F^1,G^40,K^41.C16 diacid]exendin-4 (peptide)	2.4	2.1	8.3 pKd (M)	41	7.5 pEC50 (M)	98	7.9 pEC50 (M)	49	8.2 pEC50 (M)
F^1-exendin-4 (peptide)			7.8 pKd (M)	97	8.4 pEC50 (M)	97	9.2 pEC50 (M)	83	9 pEC50 (M)
[G^40,K^41.C16 diacid]exendin-4 (from UniProt P26349 48-87) (peptide)	2.6	2.3							
[D^3,G^40,K^41.C16 diacid]exendin-4 (peptide)	2.1	2.2	8.9 pKd (M)	101	8.7 pEC50 (M)	97	10.8 pEC50 (M)	97	10.4 pEC50 (M)
D^3-exendin-4 (peptide)			9.1 pKd (M)	100	9 pEC50 (M)	101	11 pEC50 (M)	96	10.6 pEC50 (M)
